# Measured values from US20210087291A1.
# Experiments:
# [1] = molecular target: human TIM-3 on cells (human) (UniProt Q8TDQ0); assay: flow cytometry, human CD14+ monocytes donor2
# [2] = molecular target: human TIM-3 on cells (human) (UniProt Q8TDQ0); assay: flow cytometry, human CD14+ monocytes donor1
# [3] = molecular target: cynomolgus TIM-3 on isolated cyno CD14+ monocytes (cynomolgus); assay: flow cytometry, cyno CD14+ monocytes cyno3
# [4] = molecular target: cynomolgus TIM-3 on isolated cyno CD14+ monocytes (cynomolgus); assay: flow cytometry, cyno CD14+ monocytes cyno1
# [5] = molecular target: human TIM-3 on cells (human) (UniProt Q8TDQ0); assay: flow cytometry, human CD14+ monocytes donor3
# [6] = molecular target: cynomolgus TIM-3 on isolated cyno CD14+ monocytes (cynomolgus); assay: flow cytometry, cyno CD14+ monocytes cyno2
# [7] = molecular target: human TIM-3 on cells (human) (UniProt Q8TDQ0); assay: FACS competition on RPMI-8226, competitor TIM3-0028
# [8] = molecular target: cynomolgus Tim3 (ELISA) (cynomolgus); assay: ELISA, cyno Tim3; EC50 relative to the sample's max value
# cynomolgus Tim3 (ELISA) (cynomolgus), sequence (chain, as listed by the source, form in doubt): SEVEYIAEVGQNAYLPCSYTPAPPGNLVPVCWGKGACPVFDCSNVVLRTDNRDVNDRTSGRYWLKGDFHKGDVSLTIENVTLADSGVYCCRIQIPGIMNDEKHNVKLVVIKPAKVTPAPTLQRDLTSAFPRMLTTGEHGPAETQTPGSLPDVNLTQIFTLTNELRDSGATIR
# [9] = molecular target: human TIM-3 on cells (human) (UniProt Q8TDQ0); assay: cell-based or functional assay
# [10] = molecular target: human TIM-3 on cells (human) (UniProt Q8TDQ0); assay: cell ELISA, CHO-Tim3; EC50 relative to the sample's max value
# [11] = molecular target: human TIM-3 on cells (human) (UniProt Q8TDQ0); assay: FACS competition on RPMI-8226, competitor TIM3-0026
# [12] = molecular target: Tim3-ECD-His-Biotin (human) (UniProt Q8TDQ0); assay: ELISA, human Tim3; EC50 relative to the sample's max value
# [13] = molecular target: human TIM-3 on cells (human) (UniProt Q8TDQ0); assay: FACS competition on RPMI-8226, competitor TIM3-0022
# [14] = molecular target: monomeric human Tim3-ECD (human) (UniProt Q8TDQ0); assay: SPR Biacore, antibody captured by anti-mouse IgG
# [15] = molecular target: monomeric cyno Tim3-ECD (cynomolgus); assay: SPR Biacore, antibody captured by anti-mouse IgG
# monomeric cyno Tim3-ECD (cynomolgus), sequence (chain, as listed by the source, form in doubt): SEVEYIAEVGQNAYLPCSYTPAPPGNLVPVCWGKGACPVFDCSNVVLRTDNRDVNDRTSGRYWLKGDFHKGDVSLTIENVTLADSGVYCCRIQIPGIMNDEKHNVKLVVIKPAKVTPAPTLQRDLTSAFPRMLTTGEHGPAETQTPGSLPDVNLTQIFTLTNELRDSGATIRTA
# [16] = molecular target: huFc fused dimeric human Tim3-ECD (human) (UniProt Q8TDQ0); assay: SPR Biacore, antibody captured by anti-mouse IgG
# [17] = molecular target: human TIM-3 on cells (human) (UniProt Q8TDQ0); assay: cell ELISA, CHO-Tim3
# [18] = molecular target: human TIM-3 on cells (human) (UniProt Q8TDQ0); assay: FACS competition on RPMI-8226, competitor TIM3-0038
# [19] = molecular target: cynomolgus Tim3 (ELISA) (cynomolgus); assay: ELISA, cyno Tim3
# [20] = molecular target: human TIM-3 on cells (human) (UniProt Q8TDQ0); assay: FACS competition on RPMI-8226, competitor TIM3-0018
# [21] = molecular target: Tim3-ECD-His-Biotin (human) (UniProt Q8TDQ0); assay: ELISA, human Tim3
# [22] = molecular target: human TIM-3 on cells (human) (UniProt Q8TDQ0); assay: FACS competition on RPMI-8226, competitor TIM3-0016
specific binding MFI [1],specific binding MFI [2],MFI [3],MFI [4],specific binding MFI [5],MFI [6],Max % inhibition of binding [11],Max % inhibition of binding [18],Max % inhibition of binding [20],Max % inhibition of binding [22],Substance,also measured
68 MFI,71 MFI,91 MFI,84 MFI,70 MFI,86 MFI,,,,,Rat-IgG2A (isotype control) (antibody),
13 MFI,0 MFI,,,0 MFI,,,,,,M-IgG2b (isotype control) (antibody),

# The remaining lines, values behind:
Substance,specific binding MFI [1],specific binding MFI [2],MFI [3],MFI [4],specific binding MFI [5],MFI [6],Max % inhibition of binding [11],Max % inhibition of binding [18],Max % inhibition of binding [20],Max % inhibition of binding [22],also measured
M-IgG1 (isotype control) (antibody),55 MFI,144 MFI,83 MFI,72 MFI,213 MFI,82 MFI,,,,,
anti-TIM3 reference antibody F38-2E2 (BioLegend),493 MFI,516 MFI,124 MFI,135 MFI,460 MFI,136 MFI,2%,94%,-6%,-7%,"Max % inhibition of binding [7]: 75%; EC50 [8]: 0.423 µg/mL; IFN-gamma release in MLR at 1 µg/ml, % of IL-2 control [9]: 7%; IFN-gamma release in MLR at 10 µg/ml, % of IL-2 control [9]: 26%; IFN-gamma release in MLR at 40 µg/ml, % of IL-2 control [9]: 36%; EC50 [10]: 0.35 µg/mL; EC50 [12]: 0.0732 µg/mL; Max % inhibition of binding [13]: 77%; Kd [14]: 13.6 nM; Kd [15]: 168 nM; Kd [16]: 7.5 nM; inflexion point [17]: 224 ng/mL; inflexion point [19]: 210000 ng/mL; inflexion point [21]: 86.3 ng/mL"
anti-TIM3 reference antibody 344823 (R&D Systems),917 MFI,1010 MFI,143 MFI,158 MFI,814 MFI,121 MFI,3%,99%,0%,0%,
